Assay [1] deals with allergen specific IgE antibody (ovalbumin). Briefly: anti-IgE capture ELISA with biotinylated ovalbumin probe on serum of immunised mice. Conditions: BALB/c mice, 0.2 mL s.c., boosted at day 21, bled 14 days after booster; serum at 1/10 dilution. The format is in vivo, BALB/c female mice. As for the experimental part:
(§1) TH1 inducing activity in mice can be equated with the production of IgG2a and IgG2b antibodies and the TH2 inducing activity with the production of IgG 1 antibodies and IgE antibodies.
(§2) Groups of 8 BALB/c female mice, 6-8 weeks of age, were injected subcutaneously in the inguinal area with 0.2 mL of one of the following vaccines:
(§3) XOA+Tyrosine: The XOA tyrosine adsorbate prepared in Preparation 2 above was diluted with an equal volume of phosphate buffered saline within 30 min prior to injection.
XOA+Tyrosine+MPL: The XOA tyrosine adsorbate prepared in Preparation 2 above was diluted with an equal volume of MPL®-AF at 500 μg/mL in phosphate buffered saline within 30 min prior to injection. […]
(§4) The sera were assayed by conventional ELISA technique using horseradish conjugated goat anti-mouse IgG1, IgG2a, and IgG2b antibodies purchased from Southern Biotechnology, Inc. (Birmingham, Ala.) and used according to the manufacturer's instruction. The IgG1, IgG2a, and IgG2b titers represent the reciprocal serum dilution giving a reading of >0.1 OD units at A490. The serum IgE levels were measured using an anti-IgE capture ELISA followed by the use of a biotinylated ovalbumin probe. Binding was measured following the addition of a horseradish conjugated strepavidin preparation.

Assay [2] relates to allergen specific antibodies to ovalbumin (XOA): IgG1, IgG2a, IgG2b. Briefly: ELISA of serum IgG1, IgG2a and IgG2b antibodies after subcutaneous immunisation and booster of mice. In kind it is in vivo, BALB/c female mice. Conditions: BALB/c mice, 0.2 mL s.c., boosted at day 21, bled 14 days after booster. The protocol: as §1, §2, §3
XOA+Tyrosine+MPL: The XOA tyrosine adsorbate prepared in Preparation 2 above was diluted with an equal volume of MPL®-AF at 500 μg/mL in phosphate buffered saline within 30 min prior to injection.
XOA+MPL: XOA was dissolved in phosphate buffered saline at 200 μg/mL and diluted with an equal volume of MPL®-AF at 500 μg/mL in phosphate buffered saline within 30 min prior to injection.
XOA Alone: XOA was dissolved at 200 μg/mL in phosphate buffered saline and diluted with an equal volume of phosphate buffered saline.
Twenty-one days later the four groups of mice were boosted with 0.2 mL of freshly prepared vaccines. Fourteen days following the booster the mice were bled and the sera separated and stored at −70° C. until assay.
as §4
(In an ELISA, binding on a coated surface is turned into a signal by an enzyme label.)

B1: ovalbumin (protein, UniProt P01012 2-386, looked up)
Ovalbumin: GSIGAASMEFCFDVFKELKVHHANENIFYCPIAIMSALAMVYLGAKDSTRTQINKVVRFDKLPGFGDSIEAQCGTSVNVHSSLRDILNQITKPNDVYSFSLASRLYAEERYPILPEYLQCVKELYRGGLEPINFQTAADQARELINSWVESQTNGIIRNVLQPSSVDSQTAMVLVNAIVFKGLWEKAFKDEDTQAMPFRVTEQESKPVQMMYQIGLFRVASMASEKMKILELPFASGTMSMLVLLPDEVSGLEQLESIINFEKLTEWTSSNVMEERKIKVYLPRMKMEEKYNLTSVLMAMGITDVFSSSANLSGISSAESLKISQAVHAAHAEINEAGREVVGSAEAGVDAASVSEEFRADHPFLFCIKHIATNAVLFFGRCVSP
notes: ovalbumin (XOA), a food allergen from chicken eggs, 200 μg/mL in phosphate buffered saline diluted with an equal volume of PBS
On to B1, for which the “IgE OD at 1/10 Dilution” value in assay [1] amounted to 0.235 OD units at A490. Further, in assay [2], the “IgG1 titer (reciprocal serum dilution giving a reading of >0.1 OD units at A490)” value was 6400, the “IgG2a Titer (reciprocal serum dilution giving a reading of >0.1 OD units at A490)” value is on record as less than 100 and the “IgG2b Titer (reciprocal serum dilution giving a reading of >0.1 OD units at A490)” value is given as less than 100.
